Measured values reported in patent publication US20060014669A1.

Molecular target: VEGF
Experiment: cell-based or functional assay

| Substance | inhibition of VEGF-induced HUVEC proliferation in vitro, IC50 [µg/mL] |
| --- | --- |
| Murine Flk1-Fc (murine Flk1 ectodomain fused to murine IgG2a Fc fragment, adenovirus-expressed) (from UniProt P35918 20-762) (Fc fusion) | 0.1 |
| Murine Flt1(1-3) soluble ectodomain with C-terminal 6xHis tag (adenovirus-expressed) (from UniProt P35969 23-328) (receptor) | 0.005 |
